# Values of other authors in publication PMC12521419.
# Assays:
# [1] = system: LMBV virion (largemouth bass virus particle; binding protein not identified) (Largemouth bass virus (genus Ranavirus, family Iridoviridae), isolated from diseased largemouth bass, propagated in FHM cells); test: not stated for truncated form (ELASA stated for parent LA38); conditions: PBS, aptamers 500 nM each with LMBV in 100 uL for 1 h (temperature not stated); streptavidin beads 4 C 30 min; washes PBS + 0.1% Tween-20; SDA 37 C 30 min …
# [2] = system: LMBV virion (largemouth bass virus particle; binding protein not identified) (Largemouth bass virus (genus Ranavirus, family Iridoviridae), isolated from diseased largemouth bass, propagated in FHM cells); test: not stated for truncated form (ELASA stated for parent LA13); conditions: PBS, aptamers 500 nM each with LMBV in 100 uL for 1 h (temperature not stated); streptavidin beads 4 C 30 min; washes PBS + 0.1% Tween-20; SDA 37 C 30 min …
Sequence,Kd [1] [nM],Kd [2] [nM]
GCCGGCCCGGGGGATAGAGTGCTCCCGATCCCTTGGCGAAGGGAC [LA38s],3.42,–
TTTTGACGCTTTATCCTTTTCTTATGGCGGGATAGTTTCG [LA13s],–,2.34
